What was measured:
[1] = target: T1, Zymomonas mobilis glucose 6-phosphate dehydrogenase EC 1.1.1.49 (Zymomonas mobilis subsp. mobilis, UniProt P21907); assay type: biochemical; conditions: assay conditions: 25° C., 50 mM Tris-Cl buffer, pH 8.0
T1 construct: endogenous in cells; host or cells: Zymomonas mobilis cells (enzyme extracted and purified from the organism itself)
T1 sequence (P21907 1-485): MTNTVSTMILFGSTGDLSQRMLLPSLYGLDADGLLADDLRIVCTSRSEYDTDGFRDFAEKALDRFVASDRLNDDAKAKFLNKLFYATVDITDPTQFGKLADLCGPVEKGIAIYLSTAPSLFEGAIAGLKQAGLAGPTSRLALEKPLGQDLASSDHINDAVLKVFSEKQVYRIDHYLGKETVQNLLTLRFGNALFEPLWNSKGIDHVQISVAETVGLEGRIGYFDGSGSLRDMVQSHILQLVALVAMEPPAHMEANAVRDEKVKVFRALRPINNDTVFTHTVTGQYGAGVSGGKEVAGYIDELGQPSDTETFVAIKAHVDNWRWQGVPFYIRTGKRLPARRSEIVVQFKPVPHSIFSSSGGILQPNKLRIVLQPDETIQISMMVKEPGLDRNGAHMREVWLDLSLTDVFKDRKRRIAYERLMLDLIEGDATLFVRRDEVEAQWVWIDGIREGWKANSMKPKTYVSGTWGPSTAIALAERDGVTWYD

[2] = target: T2, Zymomonas mobilis fructokinase EC 2.7.1.4 (Zymomonas mobilis subsp. mobilis, UniProt Q03417); assay: Kinetic properties, sugar specificity and glucose inhibition of purified fructokinase; assay type: biochemical
T2 construct: endogenous in cells; host or cells: Zymomonas mobilis cells (enzyme extracted and purified from the organism itself)
T2 sequence (Q03417 1-301): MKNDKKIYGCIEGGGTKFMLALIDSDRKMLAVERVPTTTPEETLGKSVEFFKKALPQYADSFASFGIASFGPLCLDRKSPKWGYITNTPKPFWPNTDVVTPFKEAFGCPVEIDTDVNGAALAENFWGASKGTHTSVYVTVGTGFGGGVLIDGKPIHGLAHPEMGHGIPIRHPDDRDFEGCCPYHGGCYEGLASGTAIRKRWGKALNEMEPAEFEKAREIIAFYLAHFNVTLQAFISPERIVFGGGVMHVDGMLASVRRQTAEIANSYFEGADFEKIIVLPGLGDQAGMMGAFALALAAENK
From the text: The active enzyme may be concentrated by ultrafiltration and stored frozen or freeze-dried.

[3] = substrate: NC(=O)c1ccc[n+]([C@@H]2O[C@H](COP(=O)([O-])OP(=O)(O)OC[C@H]3O[C@@H](n4cnc5c(N)ncnc54)[C@H](OP(=O)(O)O)[C@@H]3O)[C@@H](O)[C@H]2O)c1; assay: purified protein, by the assay type; conditions: other: assay conditions printed: 25° C., 50 mM Tris-Cl buffer, pH 8.0, pH 8.0
[4] = substrate: NC(=O)c1ccc[n+]([C@@H]2O[C@H](COP(=O)([O-])OP(=O)(O)OC[C@H]3O[C@@H](n4cnc5c(N)ncnc54)[C@H](O)[C@@H]3O)[C@@H](O)[C@H]2O)c1; assay: purified protein, by the assay type; assay type: biochemical, Zymomonas mobilis; conditions: other: assay conditions printed: 25° C., 50 mM Tris-Cl buffer, pH 8.0
[5] = substrate: Nc1ncnc2c1ncn2[C@@H]1O[C@H](COP(=O)(O)OP(=O)(O)OP(=O)(O)O)[C@@H](O)[C@H]1O; assay: Kinetic properties and sugar specificity of purified glucokinase; assay type: biochemical, Zymomonas mobilis; conditions: other: approximate values, assay conditions: 25° C., 50 mM K-Morpholinopropane sulphonate, 30 mM NaCl, 2 mM MgCl2, pH 6.8
[6] = substrate: OC[C@H]1OC(O)[C@H](O)[C@@H](O)[C@@H]1O; assay: purified protein, by the assay type; conditions: other: approximate values, assay conditions: 25° C., 50 mM K-Morpholinopropane sulphonate, 30 mM NaCl, 2 mM MgCl2, pH 6.8, pH 6.8
[7] = substrate: Nc1ncnc2c1ncn2[C@@H]1O[C@H](COP(=O)(O)OP(=O)(O)OP(=O)(O)O)[C@@H](O)[C@H]1O; assay: purified protein, by the assay type; assay type: biochemical, Zymomonas mobilis; conditions: other: assay conditions printed: 50 mM K-morpholino propane sulphonate buffer, 30 mM NaCl, 2 mM MgCl2 pH 6.8
[8] = substrate: O=C(CO)[C@@H](O)[C@H](O)[C@H](O)CO; assay: purified protein, by the assay type; assay type: biochemical, Zymomonas mobilis; conditions: other: assay conditions printed: 50 mM K-morpholino propane sulphonate buffer, 30 mM NaCl, 2 mM MgCl2 pH 6.8

Work on “glucose 6-phosphate [glucose 6-phosphate dehydrogenase]” yielded a Km [1] of 170 µM.

In the case of `OC[C@H]1OC(O)[C@H](O)[C@@H](O)[C@@H]1O` (stereo partly drawn) [glucose], the Ki ([2]; competitive inhibitor with fructose) is reported as 200 µM and the “enzyme activity in the presence of glucose” value ([2]; glucose at 5-10 mM or more, low levels of fructose) is reported as “essentially inactive”.

B1: Zymomonas mobilis glucose 6-phosphate dehydrogenase EC 1.1.1.49 (Zymomonas mobilis subsp. mobilis ZM4 = ATCC 31821) (protein)
chain: T1 sequence (P21907 1-485)
notes: endogenous in cells; host or cells: Zymomonas mobilis cells (enzyme extracted and purified from the organism itself)
Molecule B1 has a Km [3] of 0.04 mM and a Km [4] of 0.21 mM.

B2: Zymomonas mobilis glucokinase EC 2.7.1.2 (Zymomonas mobilis subsp. mobilis ZM4 = ATCC 31821) (protein)
chain: MEIVAIDIGGTHARFSIAEVSNGRVLSLGEETTFKTAEHASLQLAWERFGEKLGRPLPRAAAIAWAGPVHGEVLKLTNNPWVLRPATLNEKLDIDTHVLINDFGAVAHAVAHMDSSYLDHICGPDEALPSDGVITILGPGTGLGVAHLLRTEGRYFVIETEGGHIDFAPLDRLEDKILARLRERFRRVSIERIISGPGLGNIYEALAAIEGVPFSLLDDIKLWQMALEGKDNLAEAALDRFCLSLGAIAGDLALAQGATSVVIGGGVGLRIASHLPESGFRQRFVSKGRFERVMSKIPVKLITYPQPGLLGAAAAYANKYSEVE
notes: Glucokinase so obtained is almost homogenous by electrophoretic criteria; endogenous in cells; host or cells: Zymomonas mobilis cells (enzyme extracted and purified from the organism itself)
Molecule B2 has a Km [5] of 0.8 mM and a Km [6] of 0.2 mM.

B3: Zymomonas mobilis fructokinase EC 2.7.1.4 (Zymomonas mobilis subsp. mobilis ZM4 = ATCC 31821) (protein)
chain: T2 sequence (Q03417 1-301)
notes: as for B1
With B3 the Km [7] was 0.4 mM and the Km [8] was 0.5 mM.
